Experimental findings from article PMC12207370, “Macrocyclic Peptide Probes for Immunomodulatory Protein CD59: Potent Modulators of Bacterial Toxin Activity and Antibody‐Dependent Cytotoxicity” (Angewandte Chemie (International Ed. in English), 2025) are described below.

This assay addresses T1, biotinylated CD59 (Homo sapiens, UniProt P13987).
T1 construct: Recombinant soluble human CD59 with an additional C-terminal cysteine residue
T1 sequence (P13987 26-102 limits assumed): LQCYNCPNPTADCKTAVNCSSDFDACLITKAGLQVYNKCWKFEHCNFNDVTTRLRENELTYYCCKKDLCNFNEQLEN
The assay is described as follows: mRNA-display cyclic peptide screen against CD59-biotin, NGS abundance after 6th selection round. The following applies: for Percentage Seq I: counts normalised by total counts of sample Seq I; for Percentage Seq I / Percentage Seq II: percentage of the pool; for Percentage Seq I / Percentage Seq II / Percentage Average / Percentage of the pool, averaged across the two sequencing samples / Percentage of the pool, Seq I / Percentage of the pool, Seq II: sheet R6; for Percentage Seq II: counts normalised by total counts of sample Seq II; for Percentage Average: percentage of the pool averaged across the two sequencing samples; for Counts Seq I / Counts Seq II: raw NGS counts of peptide sequence; for Counts Seq I: sequencing sample Seq I; for Counts Seq I / Counts Seq II / Counts (raw counts for peptide sequence), Seq I / Counts (raw counts for peptide sequence), Seq II: sheet R6 (6th selection round); for Counts Seq II: sequencing sample Seq II; for Counts (raw counts for peptide sequence), Seq I: NGS sample Seq I; for Counts (raw counts for peptide sequence), Seq II: NGS sample Seq II; for Percentage of the pool, averaged across the two sequencing samples: average of Seq I and Seq II; for Percentage of the pool, Seq I: counts normalised by total counts of NGS sample Seq I; for Percentage of the pool, Seq II: counts normalised by total counts of NGS sample Seq II. The essentials:
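Peptide–mRNA fusions were made by in vitro translation with a customised PURE express kit. The kit lacked release factor 1 and methionine and was supplemented with […] initiator tRNA carrying N-chloroacetyl-d-tyrosine. Thioether macrocycles were formed, then enriched and amplified over iterative rounds on CD59-biotin immobilised on streptavidin beads. NGS read counts per sequence were recorded after the 6th selection round.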

HVRGDAWTVLG: the “Percentage Seq I” value is 0.243%, the “Percentage Seq II” value is recorded as 0.216%, the “Percentage Average” value was found to be 0.230% and the “Counts Seq I” value is 1065. In addition, the “Counts Seq II” value came out at 93.

Regarding CFAARARNNQTV, the “Percentage Seq I” value is on record as 0.091%, the “Percentage Seq II” value was determined as 0.093%, the “Percentage Average” value was found to be 0.092% and the “Counts Seq I” value stood at 396. For the same sequence, the “Counts Seq II” value was determined as 40.

Take CYGGRTFIYARS: the “Percentage Seq I” value turned out to be 0.027%, the “Percentage Seq II” value is reported as 0.016%, the “Percentage Average” value was found to be 0.021% and the “Counts Seq I” value came to 117. Moreover, the “Counts Seq II” value was 7.

For the sequence FVTGNRDHTHG, the “Counts (raw counts for peptide sequence), Seq I” value stood at 45; the “Counts (raw counts for peptide sequence), Seq II” value was 5; the “Percentage of the pool, averaged across the two sequencing samples” value was found to be 0.011%; the “Percentage of the pool, Seq I” value is on record as 0.010%. In addition, the “Percentage of the pool, Seq II” value came out at 0.012%.

As to WSTRTFTCRTLL, the “Percentage Seq I” value was 0.395%, the “Percentage Seq II” value was found to be 0.446%, the “Percentage Average” value worked out at 0.420% and the “Counts Seq I” value is 1728. Further, the “Counts Seq II” value was 192.

Consider FVRGNSTSVLF, for which the “Percentage Seq I” value worked out at 0.020%, the “Percentage Seq II” value was found to be 0.019%, the “Percentage Average” value is 0.019% and the “Counts Seq I” value is reported as 88. Moreover, the “Counts Seq II” value is recorded as 8.

In the case of DCWVRGSRNYT, the “Counts (raw counts for peptide sequence), Seq I” value is 62; the “Counts (raw counts for peptide sequence), Seq II” value is 6; the “Percentage of the pool, averaged across the two sequencing samples” value was 0.014%; the “Percentage of the pool, Seq I” value was 0.014%. For the same sequence, the “Percentage of the pool, Seq II” value was found to be 0.014%.

Consider VKYGNSNFVRG, for which the “Percentage Seq I” value worked out at 0.660%, the “Percentage Seq II” value is reported as 0.657%, the “Percentage Average” value worked out at 0.659% and the “Counts Seq I” value was determined as 2889. Also, the “Counts Seq II” value came to 283.

On to RTCHLRHDGPHA, for which the “Counts (raw counts for peptide sequence), Seq I” value is 59; the “Counts (raw counts for peptide sequence), Seq II” value was determined as 6; the “Percentage of the pool, averaged across the two sequencing samples” value was 0.014%; the “Percentage of the pool, Seq I” value was determined as 0.013%. Also, the “Percentage of the pool, Seq II” value was 0.014%.

With CFNSRLHIGAV, the “Percentage Seq I” value is 0.041%, the “Percentage Seq II” value is recorded as 0.058%, the “Percentage Average” value was 0.050% and the “Counts Seq I” value turned out to be 181. For the same sequence, the “Counts Seq II” value is listed as 25.

For FVTGNRDNTRG, the “Counts (raw counts for peptide sequence), Seq I” value was 80; the “Counts (raw counts for peptide sequence), Seq II” value worked out at 6; the “Percentage of the pool, averaged across the two sequencing samples” value is given as 0.016%; the “Percentage of the pool, Seq I” value amounted to 0.018%. Further, the “Percentage of the pool, Seq II” value turned out to be 0.014%.

Regarding FVTGNRDRTRG, the “Percentage Seq I” value came to 0.019%, the “Percentage Seq II” value is 0.026%, the “Percentage Average” value is 0.022% and the “Counts Seq I” value amounted to 81. Besides, the “Counts Seq II” value amounted to 11.

TFRKRLTATCGT: the “Percentage Seq I” value is listed as 0.016%, the “Percentage Seq II” value was 0.028%, the “Percentage Average” value was 0.022% and the “Counts Seq I” value amounted to 68. Also, the “Counts Seq II” value was 12.

For the sequence CFANRLYGSDSR, the “Percentage Seq I” value worked out at 0.040%, the “Percentage Seq II” value is given as 0.039%, the “Percentage Average” value is 0.040% and the “Counts Seq I” value was 177. Moreover, the “Counts Seq II” value worked out at 17.

As for RRDRFDQCVL, the “Counts (raw counts for peptide sequence), Seq I” value came out at 33; the “Counts (raw counts for peptide sequence), Seq II” value is listed as 5; the “Percentage of the pool, averaged across the two sequencing samples” value stood at 0.010%; the “Percentage of the pool, Seq I” value came to 0.00754%. Moreover, the “Percentage of the pool, Seq II” value was determined as 0.012%.

Regarding CYGGRTLIYAWS, the “Percentage Seq I” value came to 0.028%, the “Percentage Seq II” value worked out at 0.019%, the “Percentage Average” value is reported as 0.023% and the “Counts Seq I” value worked out at 121. In addition, the “Counts Seq II” value amounted to 8.

Regarding AKGNGHFAYG, the “Percentage Seq I” value was found to be 0.144%, the “Percentage Seq II” value is 0.114%, the “Percentage Average” value was found to be 0.129% and the “Counts Seq I” value is reported as 629. Moreover, the “Counts Seq II” value turned out to be 49.

As to SSWAQVPCYS, the “Percentage Seq I” value is recorded as 0.040%, the “Percentage Seq II” value is 0.032%, the “Percentage Average” value is given as 0.036% and the “Counts Seq I” value is on record as 175. Besides, the “Counts Seq II” value turned out to be 14.

As to SCSEWRRGTRS, the “Counts (raw counts for peptide sequence), Seq I” value is 43; the “Counts (raw counts for peptide sequence), Seq II” value was found to be 4; the “Percentage of the pool, averaged across the two sequencing samples” value turned out to be 0.010%; the “Percentage of the pool, Seq I” value stood at 0.010%. The “Percentage of the pool, Seq II” value was 0.009%.

Turning to HVFGNRSFTRG, the “Percentage Seq I” value stood at 5.324%, the “Percentage Seq II” value is given as 5.834%, the “Percentage Average” value turned out to be 5.579% and the “Counts Seq I” value is listed as 23292. The “Counts Seq II” value is recorded as 2514.

FVTGNRNHTRG: the “Percentage Seq I” value is listed as 0.032%, the “Percentage Seq II” value is given as 0.028%, the “Percentage Average” value came out at 0.030% and the “Counts Seq I” value is given as 142. Further, the “Counts Seq II” value is recorded as 12.

Take CFAKRIVALHST: the “Counts (raw counts for peptide sequence), Seq I” value came out at 54; the “Counts (raw counts for peptide sequence), Seq II” value is 7; the “Percentage of the pool, averaged across the two sequencing samples” value is 0.014%; the “Percentage of the pool, Seq I” value worked out at 0.012%. Moreover, the “Percentage of the pool, Seq II” value came out at 0.016%.

In the case of CCGGRTFIYAWS, the “Counts (raw counts for peptide sequence), Seq I” value came to 44; the “Counts (raw counts for peptide sequence), Seq II” value is listed as 4; the “Percentage of the pool, averaged across the two sequencing samples” value was 0.010%; the “Percentage of the pool, Seq I” value amounted to 0.010%. Besides, the “Percentage of the pool, Seq II” value turned out to be 0.009%.

For the sequence CYGSRTFIYAWS, the “Percentage Seq I” value stood at 0.026%, the “Percentage Seq II” value is 0.019%, the “Percentage Average” value worked out at 0.022% and the “Counts Seq I” value is 114. For the same sequence, the “Counts Seq II” value amounted to 8.

As to CFSRRTSVPNTT, the “Percentage Seq I” value was found to be 0.209%, the “Percentage Seq II” value came to 0.190%, the “Percentage Average” value was found to be 0.200% and the “Counts Seq I” value is 914. Further, the “Counts Seq II” value is 82.

Turning to SAWGNRYIAYY, the “Counts (raw counts for peptide sequence), Seq I” value came out at 47; the “Counts (raw counts for peptide sequence), Seq II” value is listed as 6; the “Percentage of the pool, averaged across the two sequencing samples” value is 0.012%; the “Percentage of the pool, Seq I” value came out at 0.011%. The “Percentage of the pool, Seq II” value came to 0.014%.

Take CYGGRTFIYACS: the “Percentage Seq I” value came out at 0.019%, the “Percentage Seq II” value was found to be 0.021%, the “Percentage Average” value is listed as 0.020% and the “Counts Seq I” value was 83. For the same sequence, the “Counts Seq II” value amounted to 9.

For FVRGGLYSVLG, the “Percentage Seq I” value was 0.020%, the “Percentage Seq II” value is 0.019%, the “Percentage Average” value is reported as 0.019% and the “Counts Seq I” value was 86. Moreover, the “Counts Seq II” value amounted to 8.

As for GYLNECHTLYTR, the “Percentage Seq I” value turned out to be 0.629%, the “Percentage Seq II” value is 0.645%, the “Percentage Average” value came to 0.637% and the “Counts Seq I” value is 2754. Besides, the “Counts Seq II” value is listed as 278.

In the case of CRGNRFYQLSFH, the “Percentage Seq I” value is 0.154%, the “Percentage Seq II” value is listed as 0.186%, the “Percentage Average” value amounted to 0.170% and the “Counts Seq I” value is 674. For the same sequence, the “Counts Seq II” value came out at 80.

With SARGNRQIQYY, the “Percentage Seq I” value amounted to 0.026%, the “Percentage Seq II” value came out at 0.028%, the “Percentage Average” value was determined as 0.027% and the “Counts Seq I” value came to 114. In addition, the “Counts Seq II” value turned out to be 12.

Regarding FVRGDMYSVLG, the “Counts (raw counts for peptide sequence), Seq I” value worked out at 39; the “Counts (raw counts for peptide sequence), Seq II” value came out at 6; the “Percentage of the pool, averaged across the two sequencing samples” value came out at 0.011%; the “Percentage of the pool, Seq I” value stood at 0.009%. The “Percentage of the pool, Seq II” value is on record as 0.014%.

In the case of FARGDLYSVLG, the “Counts (raw counts for peptide sequence), Seq I” value is 71; the “Counts (raw counts for peptide sequence), Seq II” value is reported as 5; the “Percentage of the pool, averaged across the two sequencing samples” value was found to be 0.014%; the “Percentage of the pool, Seq I” value is 0.016%. Moreover, the “Percentage of the pool, Seq II” value amounted to 0.012%.

For the sequence SFAKRVAAQGGC, the “Percentage Seq I” value is 0.030%, the “Percentage Seq II” value is given as 0.021%, the “Percentage Average” value came to 0.026% and the “Counts Seq I” value is 133. Besides, the “Counts Seq II” value came out at 9.

Consider CHGGRTFIYAWS, for which the “Percentage Seq I” value came to 0.025%, the “Percentage Seq II” value is reported as 0.026%, the “Percentage Average” value amounted to 0.025% and the “Counts Seq I” value amounted to 108. Besides, the “Counts Seq II” value is 11.
